Test results as given in PMC3578176 (Cancer research, 2012).

Target: His(6)-p300 (UniProt Q09472 1-2414)
Test: pull-down

Sequence of His(6)-p300 (Q09472 whole entry): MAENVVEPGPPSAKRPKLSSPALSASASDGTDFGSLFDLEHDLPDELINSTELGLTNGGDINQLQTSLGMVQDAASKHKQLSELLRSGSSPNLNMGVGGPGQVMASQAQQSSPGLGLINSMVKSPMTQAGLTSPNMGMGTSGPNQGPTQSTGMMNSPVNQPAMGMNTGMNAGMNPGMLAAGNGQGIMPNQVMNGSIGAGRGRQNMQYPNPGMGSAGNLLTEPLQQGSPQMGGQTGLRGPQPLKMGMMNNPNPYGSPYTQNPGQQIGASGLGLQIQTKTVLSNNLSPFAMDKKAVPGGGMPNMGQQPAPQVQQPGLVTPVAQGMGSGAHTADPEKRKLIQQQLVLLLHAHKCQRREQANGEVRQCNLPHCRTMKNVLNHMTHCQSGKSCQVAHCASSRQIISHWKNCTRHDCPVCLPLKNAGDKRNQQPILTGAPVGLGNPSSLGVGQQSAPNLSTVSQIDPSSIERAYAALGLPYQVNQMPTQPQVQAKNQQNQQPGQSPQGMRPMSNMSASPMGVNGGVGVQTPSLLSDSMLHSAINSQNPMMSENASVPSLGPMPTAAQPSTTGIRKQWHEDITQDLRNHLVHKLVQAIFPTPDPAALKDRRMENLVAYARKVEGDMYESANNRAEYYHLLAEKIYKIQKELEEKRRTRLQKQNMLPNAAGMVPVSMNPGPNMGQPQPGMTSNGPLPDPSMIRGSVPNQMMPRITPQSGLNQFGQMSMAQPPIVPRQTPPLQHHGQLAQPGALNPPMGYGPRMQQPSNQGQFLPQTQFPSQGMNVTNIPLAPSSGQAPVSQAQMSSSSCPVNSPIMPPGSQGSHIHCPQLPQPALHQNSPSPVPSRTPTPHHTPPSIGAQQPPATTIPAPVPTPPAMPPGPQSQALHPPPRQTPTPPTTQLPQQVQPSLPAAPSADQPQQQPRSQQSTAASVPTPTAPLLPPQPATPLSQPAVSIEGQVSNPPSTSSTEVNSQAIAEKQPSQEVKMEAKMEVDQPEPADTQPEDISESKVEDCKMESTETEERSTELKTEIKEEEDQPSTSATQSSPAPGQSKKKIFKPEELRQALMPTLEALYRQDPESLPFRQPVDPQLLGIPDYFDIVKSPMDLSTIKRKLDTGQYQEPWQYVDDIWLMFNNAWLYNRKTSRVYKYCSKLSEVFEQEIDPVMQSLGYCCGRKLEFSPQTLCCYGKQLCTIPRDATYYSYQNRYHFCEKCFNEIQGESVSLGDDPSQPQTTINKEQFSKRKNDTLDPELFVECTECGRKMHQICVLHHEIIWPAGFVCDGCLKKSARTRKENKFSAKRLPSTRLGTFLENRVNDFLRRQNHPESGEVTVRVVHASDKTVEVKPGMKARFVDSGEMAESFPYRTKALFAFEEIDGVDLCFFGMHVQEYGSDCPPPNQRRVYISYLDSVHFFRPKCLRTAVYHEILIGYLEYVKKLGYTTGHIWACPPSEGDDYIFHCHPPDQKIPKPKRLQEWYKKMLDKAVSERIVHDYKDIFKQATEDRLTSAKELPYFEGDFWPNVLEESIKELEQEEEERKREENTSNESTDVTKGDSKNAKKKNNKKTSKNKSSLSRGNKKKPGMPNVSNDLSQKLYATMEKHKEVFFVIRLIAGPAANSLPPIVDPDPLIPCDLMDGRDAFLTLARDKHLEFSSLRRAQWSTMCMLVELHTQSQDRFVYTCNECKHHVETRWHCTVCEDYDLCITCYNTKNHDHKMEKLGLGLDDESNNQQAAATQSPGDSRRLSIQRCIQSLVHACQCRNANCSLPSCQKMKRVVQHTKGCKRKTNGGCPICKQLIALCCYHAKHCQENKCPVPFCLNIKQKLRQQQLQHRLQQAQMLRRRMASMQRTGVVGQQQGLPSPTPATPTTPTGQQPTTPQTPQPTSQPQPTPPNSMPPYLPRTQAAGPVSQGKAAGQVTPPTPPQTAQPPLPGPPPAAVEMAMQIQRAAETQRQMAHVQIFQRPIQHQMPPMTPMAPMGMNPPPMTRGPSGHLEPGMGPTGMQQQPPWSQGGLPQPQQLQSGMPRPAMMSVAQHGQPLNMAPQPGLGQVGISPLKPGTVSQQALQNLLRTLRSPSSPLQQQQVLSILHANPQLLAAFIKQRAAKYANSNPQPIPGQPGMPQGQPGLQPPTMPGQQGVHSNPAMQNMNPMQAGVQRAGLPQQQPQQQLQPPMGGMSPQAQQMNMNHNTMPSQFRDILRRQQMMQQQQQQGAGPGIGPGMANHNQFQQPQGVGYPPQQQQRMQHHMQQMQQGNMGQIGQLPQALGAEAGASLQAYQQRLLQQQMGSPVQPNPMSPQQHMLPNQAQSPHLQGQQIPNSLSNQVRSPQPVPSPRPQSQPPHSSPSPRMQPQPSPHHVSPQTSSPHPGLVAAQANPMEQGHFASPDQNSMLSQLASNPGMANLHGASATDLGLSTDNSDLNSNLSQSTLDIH

- binding result: binds
B1: GST-fused BRMS1 WT (natural protein, UniProt Q9HCU9 1-246, looked up)
chain: MPVQPPSKDTEEMEAEGDSAAEMNGEEEESEEERSGSQTESEEESSEMDDEDYERRRSECVSEMLDLEKQFSELKEKLFRERLSQLRLRLEEVGAERAPEYTEPLGGLQRSLKIRIQVAGIYKGFCLDVIRNKYECELQGAKQHLESEKLLLYDTLQGELQERIQRLEEDRQSLDLSSEWWDDKLHARGSSRSWDSLPPSKRKKAPLVSGPYIVYMLQEIDILEDWTAIKKARAAVSPQKRKSDGP
